Target: T1, Recombinant Human TRAIL R2/TNFRSF10B Fc Chimera Protein (human, UniProt O14763 56-210)
T1 construct: TNFRSF10B (DR5, TRAIL R2), human, fused to Fc; also called rhDR5–Fc; DR5–Fc; source: bought: R&D Systems (631-T2)
Experiment: SPR; Biacore T100; recombinant DR5 (R&D 631-T2-100) coupled to a CM5 chip in 10 mM sodium acetate pH 5.5; recombinant FasL or TRAIL passed over at 30 μL/min for 120 s; empty flow cell subtracted; equilibrium affinity measurements
Conditions: both partners purified

B1: recombinant human soluble Fas ligand (His-tagged) (ligand, UniProt P48023 130-281, looked up)
chain: QIGHPSPPPEKKELRKVAHLTGKSNSRSMPLEWEDTYGIVLLSGVKYKKGGLVINETGLYFVYSKVYFRGQSCNNLPLSHKVYMRNSKYPQDLVMMEGKMMSYCTTGQMWARSSYLGAVFNLTSADHLYVNVSELSLVNFEESQTFFGLYKL
notes: Fas ligand (TNFSF6), human, soluble recombinant form; also called sFasL; rhFasL; source: bought: R&D Systems (126-FL)
Kd: 1.23 pM

From article PMC8257255, “Soluble Fas ligand drives autoantibody-induced arthritis by binding to DR5/TRAIL-R2” (eLife, 2021)
